{
  "source": "patent US20100184658A1",
  "about": "(published 2010); also: test concentration or dose not given here",
  "assay_in_all_cases": "cell-based or functional assay",
  "key": {"[1]": {"biological_target": "RAF1 (cRAF) Y340D Y341D c-Raf (UniProt P04049 306-648, limits assumed)"}, "[2]": {"biological_target": "MAP4K4 (HGK) (UniProt O95819 1-328, limits assumed)"}, "[3]": {"biological_target": "STK25 (YSK1) Serine/threonine kinase 25 (STE20 homolog, yeast) (UniProt O00506 1-426, limits assumed)"}, "[4]": {"biological_target": "T1, PRKCI (PKC iota) (UniProt P41743 1-596, limits assumed)", "T1 sequence (looked up)": "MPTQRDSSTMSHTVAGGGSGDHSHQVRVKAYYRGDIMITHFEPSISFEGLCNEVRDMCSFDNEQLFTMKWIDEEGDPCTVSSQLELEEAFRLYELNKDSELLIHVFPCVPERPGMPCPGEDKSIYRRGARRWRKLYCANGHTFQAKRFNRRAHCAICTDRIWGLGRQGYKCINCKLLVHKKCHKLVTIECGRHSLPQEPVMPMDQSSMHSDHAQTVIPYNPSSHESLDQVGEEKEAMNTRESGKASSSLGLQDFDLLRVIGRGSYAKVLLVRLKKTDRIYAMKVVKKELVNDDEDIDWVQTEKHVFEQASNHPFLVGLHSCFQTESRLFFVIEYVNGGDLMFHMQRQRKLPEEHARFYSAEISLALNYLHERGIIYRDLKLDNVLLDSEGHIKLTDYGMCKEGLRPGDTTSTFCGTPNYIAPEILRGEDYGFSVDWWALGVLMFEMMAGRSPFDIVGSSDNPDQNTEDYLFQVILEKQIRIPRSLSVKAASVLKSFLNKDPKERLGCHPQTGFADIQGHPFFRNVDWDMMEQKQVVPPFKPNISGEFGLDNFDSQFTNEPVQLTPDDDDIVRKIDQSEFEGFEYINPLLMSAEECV"}, "[5]": {"biological_target": "MAP4K5 (KHS1) (UniProt Q9Y4K4 1-846, limits assumed)"}, "[6]": {"biological_target": "GRK4 (UniProt P32298 1-578, limits assumed)"}, "[7]": {"biological_target": "GRK6 (UniProt P43250 1-576, limits assumed)"}, "[8]": {"biological_target": "MELK (UniProt Q14680 1-340, limits assumed)"}, "[9]": {"biological_target": "T2, ADRBK2 (GRK3) (UniProt P35626 1-688, limits assumed)", "T2 sequence (looked up)": "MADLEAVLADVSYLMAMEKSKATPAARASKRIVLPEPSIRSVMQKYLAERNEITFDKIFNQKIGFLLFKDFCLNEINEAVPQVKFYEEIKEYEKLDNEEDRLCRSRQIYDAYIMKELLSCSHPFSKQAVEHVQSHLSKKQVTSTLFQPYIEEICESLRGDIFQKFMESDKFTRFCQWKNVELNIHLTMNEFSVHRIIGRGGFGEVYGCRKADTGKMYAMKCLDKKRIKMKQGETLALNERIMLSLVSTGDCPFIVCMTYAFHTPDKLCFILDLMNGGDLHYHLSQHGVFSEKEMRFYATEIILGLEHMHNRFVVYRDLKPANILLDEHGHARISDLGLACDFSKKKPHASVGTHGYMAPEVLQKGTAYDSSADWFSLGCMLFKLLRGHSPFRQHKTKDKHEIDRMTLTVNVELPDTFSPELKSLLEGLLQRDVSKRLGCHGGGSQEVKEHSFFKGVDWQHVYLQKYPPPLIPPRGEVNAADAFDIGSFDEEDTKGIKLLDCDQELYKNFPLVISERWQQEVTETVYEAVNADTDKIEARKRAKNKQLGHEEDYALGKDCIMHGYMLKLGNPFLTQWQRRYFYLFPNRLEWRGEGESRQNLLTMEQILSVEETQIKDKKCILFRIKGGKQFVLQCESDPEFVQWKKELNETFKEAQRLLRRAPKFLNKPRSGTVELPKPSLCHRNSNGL"}, "[10]": {"biological_target": "PRKCQ (PKC theta) (UniProt Q04759 1-706, limits assumed)"}, "[11]": {"biological_target": "CAMK2B (CaMKII beta) (UniProt Q13554 1-666, limits assumed)"}, "[12]": {"biological_target": "T3, NEK2 (UniProt P51955 1-445, limits assumed)", "T3 sequence (looked up)": "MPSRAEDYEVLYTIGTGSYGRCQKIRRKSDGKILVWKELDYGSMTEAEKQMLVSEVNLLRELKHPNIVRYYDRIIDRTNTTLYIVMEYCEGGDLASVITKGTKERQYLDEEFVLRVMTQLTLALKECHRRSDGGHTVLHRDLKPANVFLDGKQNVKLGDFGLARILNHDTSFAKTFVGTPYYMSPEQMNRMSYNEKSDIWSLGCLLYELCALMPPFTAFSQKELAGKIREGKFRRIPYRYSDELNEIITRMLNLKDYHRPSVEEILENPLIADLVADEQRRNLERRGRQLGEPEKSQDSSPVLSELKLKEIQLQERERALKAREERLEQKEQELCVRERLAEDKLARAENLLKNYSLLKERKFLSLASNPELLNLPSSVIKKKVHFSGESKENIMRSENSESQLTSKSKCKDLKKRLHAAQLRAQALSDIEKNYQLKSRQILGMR"}},
  "data": [
    {"binder": "SGRPPMIVWFNRPFLIAVSHTHGQTILFMAKVINPVGA", "note": "[D3 peptide]", "values": [
      {"measurement": "% Inhibition mean", "setting": "[1]", "value": 94.6, "unit": "%"},
      {"measurement": "% Inhibition mean", "setting": "[2]", "value": 100, "unit": "%"},
      {"measurement": "% Inhibition mean", "setting": "[3]", "value": 93.1, "unit": "%"},
      {"measurement": "% Inhibition mean", "setting": "[4]", "value": 48.9, "unit": "%"},
      {"measurement": "% Inhibition mean", "setting": "[5]", "value": 86.3, "unit": "%"},
      {"measurement": "% Inhibition mean", "setting": "[6]", "value": 58.6, "unit": "%"},
      {"measurement": "% Inhibition mean", "setting": "[7]", "value": 57.1, "unit": "%"},
      {"measurement": "% Inhibition mean", "setting": "[8]", "value": 85.8, "unit": "%"},
      {"measurement": "% Inhibition mean", "setting": "[9]", "value": 66.7, "unit": "%"},
      {"measurement": "% Inhibition mean", "setting": "[10]", "value": 86.3, "unit": "%"},
      {"measurement": "% Inhibition mean", "setting": "[11]", "value": 90.3, "unit": "%"},
      {"measurement": "% Inhibition mean", "setting": "[12]", "value": 89.6, "unit": "%"}
    ]}
  ]
}
